According to US20230287082A1 (published 2023):

Tests used:
[1] = target: NKp30 on human NK cells (human) (UniProt O14931); test: cell-based or functional assay
[2] = target: human NKp30 (human) (UniProt O14931); test: BLI, ratio to ΔB7-H6_wt
[3] = target: human NKp30 (human) (UniProt O14931); test: BLI, immunoligand on anti-hFc tip

NKp30 on human NK cells (human), sequence (O14931 19-201): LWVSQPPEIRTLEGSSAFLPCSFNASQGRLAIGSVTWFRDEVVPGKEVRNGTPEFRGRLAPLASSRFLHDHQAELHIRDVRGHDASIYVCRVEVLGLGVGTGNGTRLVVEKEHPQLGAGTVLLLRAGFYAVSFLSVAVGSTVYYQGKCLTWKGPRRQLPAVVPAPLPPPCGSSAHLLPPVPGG
human NKp30 (human), sequence (O14931 19-135 limits assumed): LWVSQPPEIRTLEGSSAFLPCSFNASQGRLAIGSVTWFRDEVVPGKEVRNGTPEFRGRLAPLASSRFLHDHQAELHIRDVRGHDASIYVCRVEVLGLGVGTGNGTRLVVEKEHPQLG

| A431 EC50 with PBMC (pM) [1] | A549 EC50 with PBMC (pM) [1] | EC50 (pM), A431 lysis with PBMC [1] | EC50 improvement compared to ΔB7-H6 wt [1] | KD improvement compared to ΔB7-H6 wt [2] | x-fold KD improvement [2] | x-fold Koff improvement [2] | Kd [3] | koff [3] | kon [3] | A431 EC50 with NK cells (pM) [1] | A549 EC50 with NK cells (pM) [1] | enhanced potency compared to the wild-type ΔB7-H6 immunoligand, initial screening [1] | EC50 of tumor cell lysis, initial screening [1] | improved potency compared to wild-type ΔB7-H6, initial screening [1] | increase in potency with purified NK cells on A431 compared to wild-type [1] | EC50 of A431 lysis with PBMC, initial screening [1] | Binder | half-maximal killing activity, initial screening [1] |
| --- | --- | --- | --- | --- | --- | --- | --- | --- | --- | --- | --- | --- | --- | --- | --- | --- | --- | --- |
| 150 pM | 556 pM | 21 pM | 41 fold | 11.9 fold | 11.9 fold | 5.2 fold | 34.5 nM | 0.0322 s⁻¹ | 933000 M⁻¹ s⁻¹ | – | – | – | – | – | – | – | ΔB7-H6_S3#14-SEED-PGLALA (bispecific antibody, part only; not given: SEED Fc chains and hu225 Fab, part only) chain, part: DLKVEMMAGGTQITPLNDNVTIFCNIFYSQPLNITTMGITWFWKSLTFDKEVKVFEFYGDHQEAFRPGAIVSPWRLKSGDASLRLPGIQLEEAGEYRCEVVVTPYKAQGTVQLEVVASPAS | – |
| 87.3 pM | 206 pM | 29.1 pM | 30 fold | 14.3 fold | 14.3 fold | 5.8 fold | 28.7 nM | 0.0289 s⁻¹ | 1.01e+06 M⁻¹ s⁻¹ | – | – | – | – | – | – | – | ΔB7-H6_S3#16-SEED-PGLALA (bispecific antibody, part only; not given: SEED Fc chains and hu225 Fab, part only) chain, part: DLKVEMMAGGTQITPLNDNVTIFCNIFYSQPLNITLMGITWFWKSLTFDKEVKVFEFYGDHQEAFRPGAIVSPWRLKSGDASLRLPGIQLEEAGEYRCEVVVTPYKAQGTVQLEVVASPAS | – |
| – | – | – | – | – | – | – | 61.6 nM | 0.0642 s⁻¹ | 1.04e+06 M⁻¹ s⁻¹ | – | – | – | – | – | – | – | ΔB7-H6_S3#20-SEED-PGLALA (bispecific antibody, part only; not given: SEED Fc chains and hu225 Fab, part only) chain, part: DLKVEMMAGGTQITPLNDNVTIFCNIFYSQPLNITHMGITWFWKSLTFDKEVKVFEFWGDHQEAFRPGAIVSPWRLKSGDASLRLPGIQLEEAGEYRCEVFVTPLKAQGTVQLEVVASPAS | – |
| – | – | – | – | – | – | – | 188 nM | 0.0766 s⁻¹ | 409000 M⁻¹ s⁻¹ | – | – | – | – | – | – | – | ΔB7-H6_S3#32-SEED-PGLALA (bispecific antibody, part only; not given: SEED Fc chains and hu225 EGFR Fab, part only) chain, part: DLKVEMMAGGTQITPLNDNVTIFCNIFYSQPLNITEMGITWFWKSLTFDKEVKVFEFWGDHQEAFRPGAIVSPWRLKSGDASLRLPGIQLEEAGEYRCEVVVTPVKAQGTVQLEVVASPAS | – |
| – | – | 158 pM | 5 fold | 1.9 fold | 1.9 fold | 1.4 fold | 217 nM | 0.124 s⁻¹ | 570000 M⁻¹ s⁻¹ | – | – | – | – | – | – | – | ΔB7-H6_S2#14-SEED-PGLALA (bispecific antibody, part only; not given: SEED Fc chains and hu225 Fab, part only) chain, part: DLKVEMMAGGTQITPLNDNVTIFCNIFYSQPLNITTMGITWFWKSLTFDKEVKVFEFFGDHQEAFRPGAIVSPWRLKSGDASLRLPGIQLEEAGEYRCEVVVTPYKAQGTVQLEVVASPAS | – |
| – | – | 172 pM | 5 fold | 1.7 fold | 1.7 fold | 1.5 fold | 234 nM | 0.115 s⁻¹ | 491000 M⁻¹ s⁻¹ | – | – | – | – | – | – | – | ΔB7-H6_S2#11-SEED-PGLALA (bispecific antibody, part only; not given: SEED Fc chains and hu225 Fab, part only) chain, part: DLKVEMMAGGTQITPLNDNVTIFCNIFYSQPLNITTMGITWFWKSLTFDKEVKVFEFWQDHQEAFRPGAIVSPWRLKSGDASLRLPGIQLEEAGEYRCEVVVTPLKAQGTVQLEVVASPAS | – |
| 37.8 pM | 135 pM | 9.9 pM | 88 fold | 6.3 fold | 6.3 fold | 3.5 fold | 65.2 nM | 0.0486 s⁻¹ | 745000 M⁻¹ s⁻¹ | 4.25 pM | 34.6 pM | 187 fold | – | – | – | – | ΔB7-H6_S3#25-SEED-PGLALA (bispecific antibody, part only; not given: SEED Fc chains and hu225 Fab, part only) chain, part: DLKVEMMAGGTQITPLNDNVTIFCNIFYSQPLNITWMGITWFWKSLTFDKEVKVFEFYGDHQEAFRPGAIVSPWRLKSGDASLRLPGIQLEEAGEYRCEVVVTPYKAQGTVQLEVVASPAS | 6 pM |
| – | – | 171 pM | 5 fold | 2 fold | 2 fold | 2 fold | 205 nM | 0.0842 s⁻¹ | 410000 M⁻¹ s⁻¹ | – | – | – | – | – | – | – | ΔB7-H6_S2#13-SEED-PGLALA (bispecific antibody, part only; not given: SEED Fc chains and hu225 Fab, part only) chain, part: DLKVEMMAGGTQITPLNDNVTIFCNIFYSQPLNITSMGITWFWKSLTFDKEVKVFEFWGDHQEAFRPGAIVSPWRLKSGDASLRLPGIQLEEAGEYRCEVVVTPYKAQGTVQLEVVASPAS | – |
| – | – | – | – | – | – | – | 147 nM | 0.122 s⁻¹ | 830000 M⁻¹ s⁻¹ | – | – | – | – | – | – | – | ΔB7-H6_S2#4-SEED-PGLALA (bispecific antibody, part only; not given: SEED Fc chains and hu225 Fab, part only) chain, part: DLKVEMMAGGTQITPLNDNVTIFCNIFYSQPLNITHMGITWFWKSLTFDKEVKVFEFYADHQEAIRPGAIVSPWRLKSGDASLRLPGIQLEEAGEYRCEVVVTPYKAQGTVQLEVVASPAS | – |
| 51.1 pM | 132 pM | 19.8 pM | 44 fold | 45.1 fold | 45.1 fold | 12.4 fold | 9.06 nM | 0.0136 s⁻¹ | 1.5e+06 M⁻¹ s⁻¹ | 4.31 pM | 42.5 pM | – | – | – | – | – | ΔB7-H6_S3#18-SEED-PGLALA (bispecific antibody, part only; not given: SEED Fc chains and hu225 Fab, part only) chain, part: DLKVEMMAGGTQITPLNDNVTIFCNIFYSQPLNITYMGITWFWKSLTFDKEVKVFEFWGDHQEAFRPGAIVSPWRLKSGDASLRLPGIQLEEAGEYRCEVVVTPYKAQGTVQLEVVASPAS | – |
| – | – | – | – | – | – | – | 291 nM | 0.162 s⁻¹ | 556000 M⁻¹ s⁻¹ | – | – | – | – | – | – | – | ΔB7-H6_S2#12-SEED-PGLALA (bispecific antibody, part only; not given: SEED Fc chains and hu225 Fab, part only) chain, part: DLKVEMMAGGTQITPLNDNVTIFCNIFYSQPLNITHMGITWLWKSLTFDKEVKVFEFYGDHQEAFRPGAIVSPWRLKSGDASLRLPGIQLEEAGEYRCEVVVTPLKAQGTVQLEVVASPAS | – |
| 60.2 pM | 356 pM | 19.2 pM | 45 fold | 4.9 fold | 4.9 fold | 3 fold | 83 nM | 0.0556 s⁻¹ | 669000 M⁻¹ s⁻¹ | – | – | – | 27.6 pM | 41 fold | – | – | ΔB7-H6_S3#27-SEED-PGLALA (bispecific antibody, part only; not given: SEED Fc chains and hu225 EGFR Fab, part only) chain, part: DLKVEMMAGGTQITPLNDNVTIFCNIFYSQPLNITTMGITWFWKSLTFDKEVKVFEFWGDHQEAFRPGAIVSPWRLKSGDASLRLPGIQLEEAGEYRCEVIVTPYKAQGTVQLEVVASPAS | – |
| – | – | – | – | – | – | – | 253 nM | 0.148 s⁻¹ | 585000 M⁻¹ s⁻¹ | – | – | – | – | – | – | – | ΔB7-H6_S2#5-SEED-PGLALA (bispecific antibody, part only; not given: SEED Fc chains and hu225 Fab, part only) chain, part: DLKVEMMAGGTQITPLNDNVTIFCNIFYSQPLNITSMGITWLWKSLTFDKEVKVFEFWGDHQEAFRPGAIVSPWRLKSGDASLRLPGIQLEEAGEYRCEVFVTPYKAQGTVQLEVVASPAS | – |
| – | – | – | – | – | – | – | 285 nM | 0.376 s⁻¹ | 1.32e+06 M⁻¹ s⁻¹ | – | – | – | – | – | – | – | ΔB7-H6_S2#6-SEED-PGLALA (bispecific antibody, part only; not given: SEED Fc chains and hu225 EGFR Fab, part only) chain, part: DLKVEMMAGGTQITPLNDNVTIFCNIFYFQPLNITEMGITWFWKSLTFDKEVKVFEFFGDHQEAFRPGAIVSPWRLKSGDASLRLPGIQLEEAGEYRCEVIVTPLKAQGTVQLEVVASPAS | – |
| 34.8 pM | 224 pM | 17.5 pM | 50 fold | 9.4 fold | 9.4 fold | 6.3 fold | 43.6 nM | 0.0269 s⁻¹ | 616000 M⁻¹ s⁻¹ | – | – | – | – | – | – | – | ΔB7-H6_S3#31-SEED-PGLALA (bispecific antibody, part only; not given: SEED Fc chains and hu225 EGFR Fab, part only) chain, part: DLKVEMMAGGTQITPLNDNVTIFCNIFYSQPLNITIMGITWFWKSLTFDKEVKVFEFYGDHQEAFRPGAIVSPWRLKSGDASLRLPGIQLEEAGEYRCEVVVTPLKAQGTVQLEVVASPAS | 25.1 pM |
| 29.9 pM | 133 pM | 8.7 pM | 100 fold | 33 fold | 33 fold | 16.6 fold | 12.4 nM | 0.0101 s⁻¹ | 817000 M⁻¹ s⁻¹ | 2.8 pM | 31.3 pM | – | – | – | 87 fold | – | ΔB7-H6_S3#15-SEED-PGLALA (bispecific antibody, part only; not given: SEED Fc chains and hu225 Fab, part only) chain, part: DLKVEMMAGGTQITPLNDNVTIFCNIFYSQPLNITIMGITWFWKSLTFDKEVKVFEFWGDHQEAFRPGAIVSPWRLKSGDASLRLPGIQLEEAGEYRCEVVVTPYKAQGTVQLEVVASPAS | – |
| – | – | 122 pM | 7 fold | 2.2 fold | 2.2 fold | 1.5 fold | 187 nM | 0.111 s⁻¹ | 597000 M⁻¹ s⁻¹ | – | – | – | – | – | – | – | ΔB7-H6_S2#10-SEED-PGLALA (bispecific antibody, part only; not given: SEED Fc chains and hu225 EGFR Fab, part only) chain, part: DLKVEMMAGGTQITPLNDNVTIFCNIFYSQPLNITLMGITWFWKSLTFDKEVKVFEFWGDHQEAFRPGAIVSPWGLKSGDASLRLPGIQLEEAGEYRCEVVVTPLKAQGTVQLEVVASPAS | – |
| – | – | – | – | – | – | – | 11.7 nM | 0.0122 s⁻¹ | 1.04e+06 M⁻¹ s⁻¹ | – | – | – | – | – | – | – | ΔB7-H6_S3#2-SEED-PGLALA (bispecific antibody, part only; not given: SEED Fc chains and hu225 EGFR Fab, part only) chain, part: DLKVEMMAGGTQITPLNDNVTIFCNIFYSQPLNITWMGITWFWKSLTFDKEVKVFEFWGDHQEAFRPGAIVSPWRLKSGDASLRLPGIQLEEAGEYRCEVVVTPYKAQGTVQLEVVASPAS | – |
| 1840 pM | – | 868 pM | 1 fold | 1 fold | – | – | 409 nM | 0.168 s⁻¹ | 412000 M⁻¹ s⁻¹ | 245 pM | – | – | – | – | – | 1.1 nM | ΔB7-H6_wt-SEED-PGLALA (bispecific antibody, part only; not given: SEED Fc chains and hu225 Fab, part only) chain, part: DLKVEMMAGGTQITPLNDNVTIFCNIFYSQPLNITSMGITWFWKSLTFDKEVKVFEFFGDHQEAFRPGAIVSPWRLKSGDASLRLPGIQLEEAGEYRCEVVVTPLKAQGTVQLEVVASPAS | – |
| – | – | – | – | – | – | – | 23.9 nM | 0.0149 s⁻¹ | 621000 M⁻¹ s⁻¹ | – | – | – | – | – | – | – | ΔB7-H6_S3#4-SEED-PGLALA (bispecific antibody, part only; not given: SEED Fc chains and hu225 Fab, part only) chain, part: DLKVEMMAGGTQITPLNDNVTIFCNIFYSQPLNITIMGITWFWKSLTFDKEVKVFEFWGDHQEAFRPGAIVSPWRLKSGDASLRLPGIQLEEAGEYRCEVVVTPLKAQGTVQLEVVASPAS | – |
